The record followed here is publication PMC3488191, “Functional identification of the DNA packaging terminase from Pseudomonas aeruginosa phage PaP3”.

Data set [1] deals with T1, p01 small terminase subunit (Pseudomonas aeruginosa phage PaP3) (UniProt Q8H9R5).
T1 sequence: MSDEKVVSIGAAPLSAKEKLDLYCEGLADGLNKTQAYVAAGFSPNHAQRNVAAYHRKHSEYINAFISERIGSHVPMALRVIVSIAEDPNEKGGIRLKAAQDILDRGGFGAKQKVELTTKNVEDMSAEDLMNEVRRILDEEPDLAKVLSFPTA
Nature of the data set: EMSA. The following applies: 50 mM Tris-HCl pH 8.0, 50 mM NaCl, 10 mM MgCl2, 5% glycerol, 1.5 uM DNA, 37 C 30 min, stopped with 20 mM EDTA; 5% native PAGE in 0.5x TBE. (A gel shift assay detects complexes by their altered migration in electrophoresis.)

Data set [2] concerns the target T2, p03 large terminase subunit (Pseudomonas aeruginosa phage PaP3, UniProt Q8H9R7 1-482).
T2 sequence: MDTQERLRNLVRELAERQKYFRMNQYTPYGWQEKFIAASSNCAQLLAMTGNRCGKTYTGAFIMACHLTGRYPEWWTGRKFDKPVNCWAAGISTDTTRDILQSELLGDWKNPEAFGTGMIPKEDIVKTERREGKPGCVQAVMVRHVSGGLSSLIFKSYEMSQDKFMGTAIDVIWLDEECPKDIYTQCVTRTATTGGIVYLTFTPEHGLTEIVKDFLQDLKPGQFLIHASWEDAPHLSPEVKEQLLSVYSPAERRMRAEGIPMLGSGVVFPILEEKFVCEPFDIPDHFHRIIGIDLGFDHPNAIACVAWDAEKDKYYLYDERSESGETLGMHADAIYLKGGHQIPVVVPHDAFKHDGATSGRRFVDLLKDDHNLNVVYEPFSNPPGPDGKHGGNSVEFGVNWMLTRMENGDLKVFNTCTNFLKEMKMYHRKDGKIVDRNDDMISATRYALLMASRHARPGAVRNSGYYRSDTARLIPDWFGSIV
Nature of the data set: EMSA; 10 mM Mg2+; 0.4 uM p03; 50 mM Tris-HCl pH 8.0, 50 mM NaCl, 10 mM MgCl2, 5% glycerol, 1.5 uM DNA, 37 C 30 min, stopped with 20 mM EDTA; 5% native PAGE in 0.5x TBE. The note with it: protein: recombinant; tags: C-terminal His6 (pET-22b); label: 5'-biotin; blunt.

In data set [3] the target is T2, p03 large terminase subunit. Nature of the data set: EMSA; 10 mM Mg2+; 50 mM Tris-HCl pH 8.0, 50 mM NaCl, 10 mM MgCl2, 5% glycerol, 1.5 uM DNA, 37 C 30 min, stopped with 20 mM EDTA; 5% native PAGE in 0.5x TBE. The note with it: protein: recombinant; tags: C-terminal His6 (pET-22b); label: 5'-biotin; blunt.

Turning to “ATACTCCCCGTCGCGCTTGAACCACGGGGTCTGTCAATTGATTGCGCTGGGACAGGCTACCAGTCGGGCCTTCTATGGTACAAGGCCAGGACCTACGCTCTTTCGGAGTGTGCGTTATTCCCTCAGCTTTCGGGTTTCTCCCTTGTTCAGTCCAAGGACCGTCGAAGGTACACTTTCCCCAGGTGGCCGTCACCTGATGGGTGCCCATGTTAGAGCCGTGGGCTTGCCTTGTCAACCCT (double strand) [cos239dn]”, the binding result in data set [1] is given as “no binding”.

B1: 20-bp cos end sequence (dsDNA)
DNA 1: GCCGGCCCCTTTCCGCGTTA
DNA 2: TAACGCGGAAAGGGGCCGGC
With B1, the binding result in data set [2] is recorded as “binds”.

B2: 24-bp non-cos DNA (dsDNA)
DNA 1: GCACTGCAGTAACTTGTCAGTCAT
DNA 2: ATGACTGACAAGTTACTGCAGTGC
Regarding B2, the binding result in data set [3] was “no binding”.
